Source: the supplement of paper PMC5998384

How the values were obtained:
[1] = tested on: HeLa Kyoto; assay: solubility in G1/S (NP-40 vs SDS abundance) (log2 ratio); higher = more soluble; settings: cell cycle stage: G1/S
[2] = tested on: HeLa Kyoto; assay: solubility change mitosis vs G1/S (difference of NP-40 vs SDS log2 ratios) (log2 ratio difference); higher = more soluble in mitosis
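Wherever solubility change mitosis vs G1/S (difference of NP-40 vs SDS log2 ratios) is given: synchronized HeLa Kyoto cells (double thymidine block for G1/S, nocodazole release for mitosis), protein amounts in NP-40 versus SDS lysates quantified by mass spectrometry, three biological replicates.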
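Wherever solubility in G1/S (NP-40 vs SDS abundance) is given: HeLa Kyoto cells arrested at G1/S by double thymidine block, proteins quantified by TMT10plex mass spectrometry in mild NP-40 versus SDS extracts, three biological replicates.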

MAAAAASGAGGAAGAGTGGAGPAGRLLPPPAPGSPAAPAAVSPAAGQPRPPAPASRGPMPARIGYYEIDRTIGKGNFAVVKRATHLVTKAKVAIKIIDKTQLDEENLKKIFREVQIMKMLCHPHIIRLYQVMETERMIYLVTEYASGGEIFDHLVAHGRMAEKEARRKFKQIVTAVYFCHCRNIVHRDLKAENLLLDANLNIKIADFGFSNLFTPGQLLKTWCGSPPYAAPELFEGKEYDGPKVDIWSLGVVLYVLVCGALPFDGSTLQNLRARVLSGKFRIPFFMSTECEHLIRHMLVLDPNKRLSMEQICKHKWMKLGDADPNFDRLIAECQQLKEERQVDPLNEDVLLAMEDMGLDKEQTLQSLRSDAYDHYSAIYSLLCDRHKRHKTLRLGALPSMPRALAFQAPVNIQAEQAGTAMNISVPQVQLINPENQIVEPDGTLNLDSDEGEEPSPEALVRYLSMRRHTVGVADPRTEVMEDLQKLLPGFPGVNPQAPFLQVAPNVNFMHNLLPMQNLQPTGQLEYKEQSLLQPPTLQLLNGMGPLGRRASDGGANIQLHAQQLLKRPRGPSPLVTMTPAVPAVTPVDEESSDGEPDQEAVQSSTYKDSNTLHLPTERFSPVRRFSDGAASIQAFKAHLEKMGNNSSIKQLQQECEQLQKMYGGQIDERTLEKTQQQHMLYQQEQHHQILQQQIQDSICPPQPSPPLQAACENQPALLTHQLQRLRIQPSSPPPNHPNNHLFRQPSNSPPPMSSAMIQPHGAASSSQFQGLPSRSAIFQQQPENCSSPPNVALTCLGMQQPAQSQQVTIQVQEPVDMLSNMPGTAAGSSGRGISISPSAGQMQMQHRTNLMATLSYGHRPLSKQLSADSAEAHSLNVNRFSPANYDQAHLHPHLFSDQSRGSPSSYSPSTGVGFSPTQALKVPPLDQFPTFPPSAHQQPPHYTTSALQQALLSPTPPDYTRHQQVPHILQGLLSPRHSLTGHSDIRLPPTEFAQLIKRQQQQRQQQQQQQQQQEYQELFRHMNQGDAGSLAPSLGGQSMTERQALSYQNADSYHHHTSPQHLLQIRAQECVSQASSPTPPHGYAHQPALMHSESMEEDCSCEGAKDGFQDSKSSSTLTKGCHDSPLLLSTGGPGDPESLLGTVSHAQELGIHPYGHQPTAAFSKNKVPSREPVIGNCMDRSSPGQAVELPDHNGLGYPARPSVHEHHRPRALQRHHTIQNSDDAYVQLDNLPGMSLVAGKALSSARMSDAVLSQSSLMGSQQFQDGENEECGASLGGHEHPDLSDGSQHLNSSCYPSTCITDILLSYKHPEVSFSMEQAGV [SIK3]
solubility in G1/S (log2) [1]: -0.387
solubility change mitosis (log2) [2]: 0.04

MAAAAVSSAKRSLRGELKQRLRAMSAEERLRQSRVLSQKVIAHSEYQKSKRISIFLSMQDEIETEEIIKDIFQRGKICFIPRYRFQSNHMDMVRIESPEEISLLPKTSWNIPQPGEGDVREEALSTGGLDLIFMPGLGFDKHGNRLGRGKGYYDAYLKRCLQHQEVKPYTLALAFKEQICLQVPVNENDMKVDEVLYEDSSTA [MTHFS]
solubility in G1/S (log2) [1]: 0.146
solubility change mitosis (log2) [2]: 0.0622

MAAATLTSKLYSLLFRRTSTFALTIIVGVMFFERAFDQGADAIYDHINEGKLWKHIKHKYENK [UQCR10]
solubility in G1/S (log2) [1]: -0.233
solubility change mitosis (log2) [2]: 0.0588

MAADLNLEWISLPRSWTYGITRGGRVFFINEEAKSTTWLHPVTGEAVVTGHRRQSTDLPTGWEEAYTFEGARYYINHNERKVTCKHPVTGQPSQDNCIFVVNEQTVATMTSEEKKERPISMINEASNYNVTSDYAVHPMSPVGRTSRASKKVHNFGKRSNSIKRNPNAPVVRRGWLYKQDSTGMKLWKKRWFVLSDLCLFYYRDEKEEGILGSILLPSFQIALLTSEDHINRKYAFKAAHPNMRTYYFCTDTGKEMELWMKAMLDAALVQTEPVKRVDKITSENAPTKETNNIPNHRVLIKPEIQNNQKNKEMSKIEEKKALEAEKYGFQKDGQDRPLTKINSVKLNSLPSEYESGSACPAQTVHYRPINLSSSENKIVNVSLADLRGGNRPNTGPLYTEADRVIQRTNSMQQLEQWIKIQKGRGHEEETRGVISYQTLPRNMPSHRAQIMARYPEGYRTLPRNSKTRPESICSVTPSTHDKTLGPGAEEKRRSMRDDTMWQLYEWQQRQFYNKQSTLPRHSTLSSPKTMVNISDQTMHSIPTSPSHGSIAAYQGYSPQRTYRSEVSSPIQRGDVTIDRRHRAHHPKHVYVPDRRSVPAGLTLQSVSPQSLQGKTLSQDEGRGTLYKYRPEEVDIDAKLSRLCEQDKVVHALEEKLQQLHKEKYTLEQALLSASQEIEMHADNPAAIQTVVLQRDDLQNGLLSTCRELSRATAELERAWREYDKLEYDVTVTRNQMQEQLDHLGEVQTESAGIQRAQIQKELWRIQDVMEGLSKHKQQRGTTEIGMIGSKPFSTVKYKNEGPDYRLYKSEPELTTVAEVDESNGEEKSEPVSEIETSVVKGSHFPVGVVPPRAKSPTPESSTIASYVTLRKTKKMMDLRTERPRSAVEQLCLAESTRPRMTVEEQMERIRRHQQACLREKKKGLNVIGASDQSPLQSPSNLRDNPFRTTQTRRRDDKELDTAIRENDVKPDHETPATEIVQLKETEPQNVDFSKELKKTENISYEMLFEPEPNGVNSVEMMDKERNKDKMPEDVTFSPQDETQTANHKPEEHPEENTKNSVDEQEETVISYESTPEVSRGNQTMAVKSLSPSPESSASPVPSTQPQLTEGSHFMCV [PLEKHA5]
solubility in G1/S (log2) [1]: -0.128
solubility change mitosis (log2) [2]: 0.0805

MAAEALAAEAVASRLERQEEDIRWLWSEVERLRDEQLNAPYSCQAEGPCLTREVAQLRAENCDLRHRLCSLRLCLAEERSRQATLESAELEAAQEAGAQPPPSQSQDKDMKKKKMKESEADSEVKHQPIFIKERLKLFEILKKDHQLLLAIYGKKGDTSNIITVRVADGQTVQGEVWKTTPYQVAAEISQELAESTVIAKVNGELWDLDRPLEGDSSLELLTFDNEEAQAVYWHSSAHILGEAMELYYGGHLCYGPPIENGFYYDMFIEDRAVSSTELSALENICKAIIKEKQPFERLEVSKEILLEMFKYNKFKCRILNEKVNTATTTVYRCGPLIDLCKGPHVRHTGKIKTIKIFKNSSTYWEGNPEMETLQRIYGISFPDNKMMRDWEKFQEEAKNRDHRKIGKEQELFFFHDLSPGSCFFLPRGAFIYNTLTDFIREEYHKRDFTEVLSPNMYNSKLWEASGHWQHYSENMFTFEIEKDTFALKPMNCPGHCLMFAHRPRSWREMPIRFADFGVLHRNELSGTLSGLTRVRRFQQDDAHIFCTVEQIEEEIKGCLQFLQSVYSTFGFSFQLNLSTRPENFLGEIEMWNEAEKQLQNSLMDFGEPWKMNPGDGAFYGPKIDIKIKDAIGRYHQCATIQLDFQLPIRFNLTYVSKDGDDKKRPVIIHRAILGSVERMIAILSENYGGKWPFWLSPRQVMVIPVGPTCEKYALQVSSEFFEEGFMADVDLDHSCTLNKKIRNAQLAQYNFILVVGEKEKIDNAVNVRTRDNKIHGEILVTSAIDKLKNLRKTRTLNAEEAF [TARSL2]
solubility in G1/S (log2) [1]: -0.498
solubility change mitosis (log2) [2]: 0.191

MAAELRMILYEDDSVQVQYVDGSTLQLSPCGSEFLFEKSPPVSAHPLEQPERIRQRTHFVISTYREQLQRALDFRNSSATCPFLSETIIPSERKKHIFIDITEVRWPSLDTDGTMIYMESGIVKITSLDGHAYLCLPRSQHEFTVHFLCKVSQKSDSSAVLSETNNKAPKDKLVEKTGKICIRGNLPGQRLKNKENEFHCQIMKSKETLKKMSCVNGTEGREELPSPGTKHTCVYTWVKQCWSVAACPEEWKYPLSLALHFHNKISNMSKIDAHITQSRFLTSDISEERGKVVSVLPRALSLSCPVPHLHRWNFCDSLLQRQSDEYSYPELVKMVWYKGVTYRLTHQNMNSIEIYSGDGSVFKSEGAYFGNYFTYYSIQEGSGKREEKTYSVNNLPPDRPGSPFTVGSLIKQATRILQHCVKMRLSLSHNYRICCWKMVPGINDSNILPLVLKESLIPSVGRFLAYSDDKVHAIFLDGITLTLNWNFSSPIEKRQVNQGLNLGWCKLTFPDGQEQLIQIEHPEPYERYVTTVTSWCRRLTQTSPREMPTHSSSSVLQENWSVASELEKIQKFNLLLENSGILNQISNKKNEQQSFDHYKPGSSETLLGEVNENRVSIALKKTSEILHDIDCLLSNSKK [C5ORF34]
solubility in G1/S (log2) [1]: -0.136
solubility change mitosis (log2) [2]: -0.0287

MAAGAGAGSAPRWLRALSEPLSAAQLRRLEEHRYSAAGVSLLEPPLQLYWTWLLQWIPLWMAPNSITLLGLAVNVVTTLVLISYCPTATEEAPYWTYLLCALGLFIYQSLDAIDGKQARRTNSCSPLGELFDHGCDSLSTVFMAVGASIAARLGTYPDWFFFCSFIGMFVFYCAHWQTYVSGMLRFGKVDVTEIQIALVIVFVLSAFGGATMWDYTIPILEIKLKILPVLGFLGGVIFSCSNYFHVILHGGVGKNGSTIAGTSVLSPGLHIGLIIILAIMIYKKSATDVFEKHPCLYILMFGCVFAKVSQKLVVAHMTKSELYLQDTVFLGPGLLFLDQYFNNFIDEYVVLWMAMVISSFDMVIYFSALCLQISRHLHLNIFKTACHQAPEQVQVLSSKSHQNNMD [CHPT1]
solubility in G1/S (log2) [1]: -0.277
solubility change mitosis (log2) [2]: -0.173

MAAGGSGGRASCPPGVGVGPGTGGSPGPSANAAATPAPGNAAAAAAAAAAAAAAPGPTPPAPPGPGTDAQAAGAERAEEAAGPGAAALQREAAYNWQASKPTVQERFAFLFNNEVLCDVHFLVGKGLSSQRIPAHRFVLAVGSAVFDAMFNGGMATTSTEIELPDVEPAAFLALLKFLYSDEVQIGPETVMTTLYTAKKYAVPALEAHCVEFLKKNLRADNAFMLLTQARLFDEPQLASLCLENIDKNTADAITAEGFTDIDLDTLVAVLERDTLGIREVRLFNAVVRWSEAECQRQQLQVTPENRRKVLGKALGLIRFPLMTIEEFAAGPAQSGILVDREVVSLFLHFTVNPKPRVEFIDRPRCCLRGKECSINRFQQVESRWGYSGTSDRIRFSVNKRIFVVGFGLYGSIHGPTDYQVNIQIIHTDSNTVLGQNDTGFSCDGSASTFRVMFKEPVEVLPNVNYTACATLKGPDSHYGTKGLRKVTHESPTTGAKTCFTFCYAAGNNNGTSVEDGQIPEVIFYT [BTBD2]
solubility in G1/S (log2) [1]: -0.317
solubility change mitosis (log2) [2]: 0.0341

MAALGVLESDLPSAVTLLKNLQEQVMAVTAQVKSLTQKVQAGAYPTEKGLSFLEVKDQLLLMYLMDLTHLILDKASGGSLQGHDAVLRLVEIRTVLEKLRPLDQKLKYQIDKLIKTAVTGSLSENDPLRFKPHPSNMMSKLSSEDEEEDEAEDDQSEASGKKSVKGVSKKYVPPRLVPVHYDETEAEREKKRLERAKRRALSSSVIRELKEQYSDAPEEIRDARHPHVTRQSQEDQHRINYEESMMVRLSVSKREKGRRKRANVMSSQLHSLTHFSDISALTGGTVHLDEDQNPIKKRKKIPQKGRKKKGFRRRR [NGDN]
solubility in G1/S (log2) [1]: -1.83
solubility change mitosis (log2) [2]: 0.93

MAAPVRLGRKRPLPACPNPLFVRWLTEWRDEATRSRRRTRFVFQKALRSLRRYPLPLRSGKEAKILQHFGDGLCRMLDERLQRHRTSGGDHAPDSPSGENSPAPQGRLAEVQDSSMPVPAQPKAGGSGSYWPARHSGARVILLVLYREHLNPNGHHFLTKEELLQRCAQKSPRVAPGSARPWPALRSLLHRNLVLRTHQPARYSLTPEGLELAQKLAESEGLSLLNVGIGPKEPPGEETAVPGAASAELASEAGVQQQPLELRPGEYRVLLCVDIGETRGGGHRPELLRELQRLHVTHTVRKLHVGDFVWVAQETNPRDPANPGELVLDHIVERKRLDDLCSSIIDGRFREQKFRLKRCGLERRVYLVEEHGSVHNLSLPESTLLQAVTNTQVIDGFFVKRTADIKESAAYLALLTRGLQRLYQGHTLRSRPWGTPGNPESGAMTSPNPLCSLLTFSDFNAGAIKNKAQSVREVFARQLMQVRGVSGEKAAALVDRYSTPASLLAAYDACATPKEQETLLSTIKCGRLQRNLGPALSRTLSQLYCSYGPLT [MUS81]
solubility in G1/S (log2) [1]: -0.347
solubility change mitosis (log2) [2]: 0.243

MAAQIPESDQIKQFKEFLGTYNKLTETCFLDCVKDFTTREVKPEETTCSEHCLQKYLKMTQRISMRFQEYHIQQNEALAAKAGLLGQPR [TIMM9]
solubility in G1/S (log2) [1]: -0.307
solubility change mitosis (log2) [2]: 0.239
